Blank lines part the entries; values can stand above or below the binder they belong to.
Experiments:
[1] = biological target: T1, rHuman IGF-1 sR, (IGF-1 sR), CF (R&D Systems Cat#391-GR) (human, UniProt P08069 31-932); experiment: MSD multispot ECL, antigen spotted on plate, Fab 11 nM; blank spot 212
T1 construct: Bought from R&D Systems and called a soluble receptor; also called insulin-like growth factor-1 soluble receptor

[2] = biological target: T2, rHuman HGF R/c-MET/Fc Chimera, CF (R&D Systems Cat#358-MT/CF) (human, UniProt P08581 25-932); experiment: as above
T2 construct: Bought from R&D Systems; also called HGF R/Fc; hepatocyte growth factor receptor (HGF R/c-Met); not shown: Fc of the bought chimera
T2 sequence (P08581 25-932, change not shown): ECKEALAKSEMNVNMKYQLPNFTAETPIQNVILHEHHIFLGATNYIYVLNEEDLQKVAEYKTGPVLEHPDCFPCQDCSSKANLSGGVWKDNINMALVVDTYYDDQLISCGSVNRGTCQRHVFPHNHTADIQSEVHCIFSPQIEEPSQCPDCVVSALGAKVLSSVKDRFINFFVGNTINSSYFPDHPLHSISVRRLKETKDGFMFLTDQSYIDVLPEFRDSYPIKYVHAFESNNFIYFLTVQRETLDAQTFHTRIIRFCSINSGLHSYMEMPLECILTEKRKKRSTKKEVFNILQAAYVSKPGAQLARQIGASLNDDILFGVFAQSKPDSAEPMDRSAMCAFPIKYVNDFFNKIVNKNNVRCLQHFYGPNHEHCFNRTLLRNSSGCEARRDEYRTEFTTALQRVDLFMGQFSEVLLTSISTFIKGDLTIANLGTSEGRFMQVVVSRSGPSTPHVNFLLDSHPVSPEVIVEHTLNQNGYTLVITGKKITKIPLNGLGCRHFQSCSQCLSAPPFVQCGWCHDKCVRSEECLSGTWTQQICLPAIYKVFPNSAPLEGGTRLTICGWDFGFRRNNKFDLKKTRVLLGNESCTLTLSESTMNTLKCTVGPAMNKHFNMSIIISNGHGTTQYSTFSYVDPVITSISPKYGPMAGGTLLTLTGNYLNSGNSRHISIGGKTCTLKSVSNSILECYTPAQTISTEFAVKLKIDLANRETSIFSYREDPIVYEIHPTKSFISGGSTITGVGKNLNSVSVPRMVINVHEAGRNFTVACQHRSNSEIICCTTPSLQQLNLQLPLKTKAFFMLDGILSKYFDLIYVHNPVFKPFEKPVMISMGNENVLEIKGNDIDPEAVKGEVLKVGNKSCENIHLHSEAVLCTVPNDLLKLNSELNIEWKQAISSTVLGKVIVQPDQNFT

[3] = biological target: T3, rHuman Erythropoietin R/Fc Chimera, CF (R&D Systems Cat#963-ER) (human, UniProt P19235 25-250); experiment: MSD multispot ECL, antigen spotted, Fab 148.9 nM; blank spot 218
T3 construct: Bought reagent; also called EPO R/Fc; Epo R
T3 sequence (looked up): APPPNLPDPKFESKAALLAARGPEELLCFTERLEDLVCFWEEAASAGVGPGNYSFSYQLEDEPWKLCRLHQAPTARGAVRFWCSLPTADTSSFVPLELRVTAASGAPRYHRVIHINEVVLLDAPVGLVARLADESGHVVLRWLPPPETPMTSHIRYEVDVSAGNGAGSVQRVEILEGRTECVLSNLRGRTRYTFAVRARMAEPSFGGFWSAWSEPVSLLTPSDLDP

[4] = biological target: T4, rHuman IGF-1 sR, (IGF-1 sR), CF (R&D Systems Cat#391-GR) (human, UniProt P08069 31-932); experiment: as above
T4 construct: Bought soluble receptor; also called insulin-like growth factor-1 soluble receptor

[5] = biological target: T5, Recombinant Human DLL4 (R&D Systems Cat#1506-D4/CF) (human, UniProt Q9NR61 27-524); experiment: as above
T5 construct: Bought recombinant protein; also called rHuman DLL4; delta-like protein 4

[6] = biological target: T6, Recombinant Human DLL4 (R&D Systems Cat#1506-D4/CF) (human, UniProt Q9NR61 27-524); experiment: Multispot ECL (MSD), antigen spotted on plate, Fab 15.6 nM; blank spot 294
T6 construct: Bought recombinant protein; also called rHuman DLL4; delta-like protein 4

[7] = biological target: T7, rHuman Notch-1/Fc Chimera, CF (R&D Systems Cat#3647-TK) (human, UniProt P46531 19-526); experiment: as above
T7 construct: Bought recombinant protein; Fc part of the bought chimera not given

[8] = biological target: T8, rHuman IGF-1 sR, CF (R&D Systems Cat#391-GR) (human, UniProt P08069 31-932); experiment: as above
T8 construct: Bought recombinant soluble receptor; also called insulin-like growth factor-1 soluble receptor

[9] = biological target: T9, rHuman Erythropoietin R/Fc Chimera, CF (R&D Systems Cat#963-ER) (human, UniProt P19235 25-250); experiment: as above
T9 construct: Bought recombinant protein; also called EPO R/Fc; Epo R; Fc part of the bought chimera not given
T9 sequence (looked up): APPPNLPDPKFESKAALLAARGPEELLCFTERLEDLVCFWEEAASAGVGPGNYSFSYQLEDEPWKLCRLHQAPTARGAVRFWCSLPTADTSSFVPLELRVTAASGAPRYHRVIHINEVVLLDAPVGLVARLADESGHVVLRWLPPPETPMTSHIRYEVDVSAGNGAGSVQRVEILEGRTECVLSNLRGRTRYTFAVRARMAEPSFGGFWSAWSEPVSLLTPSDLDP

[10] = biological target: T10, Recombinant Human DLL4 (R&D Systems Cat#1506-D4/CF) (human, UniProt Q9NR61 27-524); experiment: MSD Multispot ECL, antigen spotted on plate, Fab at 7.5 nM; blank spot 217
T10 construct: Bought recombinant protein; also called rHuman DLL4; delta-like protein 4

[11] = biological target: T11, rHuman CD44/Fc Chimera, CF (R&D Systems Cat#3660-CD) (human, UniProt P16070 21-220); experiment: as above
T11 construct: Bought Fc chimera; Fc part of the bought chimera not given

[12] = biological target: T12, rHuman Notch-1/Fc Chimera, CF (R&D Systems Cat#3647-TK) (human, UniProt P46531 19-526); experiment: as above
T12 construct: Bought Fc chimera; Fc part of the bought chimera not given

[13] = biological target: T13, rHuman P-Cadherin/Fc Chimera, CF (R&D Systems Cat#861-PC) (human, UniProt P22223 108-654); experiment: as above
T13 construct: Bought Fc chimera; Fc part of the bought chimera not given

[14] = biological target: T14, rHuman Erythropoietin R/Fc Chimera, CF (R&D Systems Cat#963-ER) (human, UniProt P19235 25-250); experiment: as above
T14 construct: Bought Fc chimera; also called EPO R/Fc; Epo R; Fc part of the bought chimera not given
T14 sequence (looked up): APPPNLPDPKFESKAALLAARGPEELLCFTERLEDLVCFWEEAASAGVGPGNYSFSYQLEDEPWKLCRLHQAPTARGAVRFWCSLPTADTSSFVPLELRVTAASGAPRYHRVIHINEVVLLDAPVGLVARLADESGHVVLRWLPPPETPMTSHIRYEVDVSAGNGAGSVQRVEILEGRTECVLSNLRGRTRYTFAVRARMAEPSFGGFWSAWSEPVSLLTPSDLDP

[15] = biological target: T10, Recombinant Human DLL4 (R&D Systems …); experiment: MSD Multispot ECL, antigen spotted on plate, Fab at 120 nM; blank spot 363
[16] = biological target: T11, rHuman CD44/Fc Chimera, CF (R&D Systems …); experiment: as above
[17] = biological target: T12, rHuman Notch-1/Fc Chimera, CF (R&D …); experiment: as above
[18] = biological target: T13, rHuman P-Cadherin/Fc Chimera, CF (R&D …); experiment: as above
[19] = biological target: T14, rHuman Erythropoietin R/Fc Chimera, CF …; experiment: as above

ECL signal [1]: 289
ECL signal [2]: 268
B1: Fab VH1-46_IGHD3-10*01_IGHJ4*01 & B3_IGKJ1*01 (Fab, V domains shown)
VH: QVQLVQSGAEVKKPGASVKVSCKASGYTFTSYYMHWVRQAPGQGLEWMGIINPSGGSTSYAQKFQGRVTMTRDTSTSTVYMELSSLRSEDTAVYYCAREYYYGSGSYYNDYFDYWGQGTLVTVSS
VL: not shown
notes: Tested as a Fab made in E. coli; VH was cloned into Plasmid A (CH1 constant region, His6 and Flag tags); The kappa VL was cloned into Plasmid C (kappa CL)

ECL signal [3]: 373 ECL signal
ECL signal [4]: 322 ECL signal
ECL signal [5]: 16300 ECL signal
B2: Fab VH1-46_IGHD6-6*01_IGHJ1*01 & L6_IGKJ1*01 (Fab, V domains shown)
VH: QVQLVQSGAEVKKPGASVKVSCKASGYTFTSYYMHWVRQAPGQGLEWMGIINPSGGSTSYAQKFQGRVTMTRDTSTSTVYMELSSLRSEDTAVYYCAREEYSSSSAEYFQHWGQGTLVTVSS
VL: not shown
notes: Only variable domains are tied to the molecule; Tested as a Fab made in E. coli: heavy chain from Plasmid A (CH1 constant region, His6 and Flag tags), kappa light chain from Plasmid C (kappa CL); also called parent Hit Fab against DLL4; VH1-46_IGHD6-6*01_IGHJ1*01 & L6_IGKJ1*01 (parental)

ECL signal [6]: 525
ECL signal [7]: 418
ECL signal [8]: 349
ECL signal [9]: 8360
B3: Fab VH1-46_IGHD6-13*01_IGHJ4*01 & B3_IGKJ1*01 (Fab, V domains shown)
VH: QVQLVQSGAEVKKPGASVKVSCKASGYTFTSYYMHWVRQAPGQGLEWMGIINPSGGSTSYAQKFQGRVTMTRDTSTSTVYMELSSLRSEDTAVYYCAREGYSSSWYDYFDYWGQGTLVTVSS
VL: not shown
notes: Germline Fab made in E. coli; VH was cloned into Plasmid A (CH1, His6 and Flag tags) and the kappa VL into Plasmid C (kappa CL)

ECL signal [10]: 598
ECL signal [11]: 444
ECL signal [12]: 392
ECL signal [13]: 352
ECL signal [14]: 443
ECL signal [15]: 938
ECL signal [16]: 442
ECL signal [17]: 472
ECL signal [18]: 450
ECL signal [19]: 431
B4: Fab VH6-1_IGHD3-3*01_IGHJ4*01 & V4-3_IGLJ4*01 (Fab, V domains shown)
VH: QVQLQQSGPGLVKPSQTLSLTCAISGDSVSSNSAAWNWIRQSPSRGLEWLGRTYYRSKWYNDYAVSVKSRITINPDTSKNQFSLQLNSVTPEDTAVYYCAREYYDFWSGYYTDYFDYWGQGTLVTVSS
VL: QPVLTQPTSLSASPGASARLTCTLRSGINLGSYRIFWYQQKPESPPRYLLSYYSDSSKHQGSGVPSRFSGSKDASSNAGILVISGLQSEDEADYYCMIWHSSASFVFGGGTQLIIL
notes: Tested as a purified germline Fab made in E. coli; The VH was cloned into plasmid A (CH1 constant region, His6 and Flag tags) and the lambda VL into plasmid E (lambda CL)

From patent US20120316071A1 (published 2012)
